Target: the molecule itself
Test: SEC-MALS; 200 ug of PcpR loaded on a BioSep-SEC-S 2000 column, eluted isocratically at 0.5 mL/min; UV, refractometer and Dawn EOS light scattering detectors; Zimm fit; calculated mass ~50 kD

B1: PcpR inducer-binding domain (residues from 85 to the C-terminus of PcpR) (domain or fragment, Sphingobium chlorophenolicum L-1, UniProt P52679 85-307, looked up)
chain: RSELRFDPGTSNRNFRIAASDFGQALMLPRLYATLEETAPQVRVTGVNLRHGPLVEELESGSIDIAFGGFPTLSAGIKTQTLFREEYVCVMRQSHPALTHGLDLEAFRQCRHIIVTAHEFNHVHEQVEARLLELLPPESIRFTTENFLVSAVIAEETDVILTIPSRLARWFANRGGLTIFPVPIELPSIEVKQYWHERYDKDPGNIWLRRVIAKIGFQNPPAE
notes: PcpR, LysR-type transcription factor of Sphingobium chlorophenolicum L-1; Cloned into pET30-LIC and expressed as a C-terminal HIS6X fusion protein; also called PcpR IBD; source: E. coli BL21(DE3), purified (nickel-nitrilotriacetate column, Mono Q anion exchange)
B1 was tested, and the “stoichiometry N” value was 2.

From article PMC4264193, “Structures of the Inducer-Binding Domain of Pentachlorophenol-Degrading Gene Regulator PcpR from Sphingobium chlorophenolicum” (International Journal of Molecular Sciences, 2014)
